Laboratory results from patent publication US20210221894A1 (DRAGONFLY THERAPEUTICS, published 2021).

Molecular target: T1, extracellular domain (ECD) of human DLL3 (AdipoGen Life Sciences) (human, UniProt Q9NYJ7 27-492)
T1 construct: Bought and further purified by size exclusion chromatography; also called hDLL3 ECD; DLL3 ECD
T1 sequence: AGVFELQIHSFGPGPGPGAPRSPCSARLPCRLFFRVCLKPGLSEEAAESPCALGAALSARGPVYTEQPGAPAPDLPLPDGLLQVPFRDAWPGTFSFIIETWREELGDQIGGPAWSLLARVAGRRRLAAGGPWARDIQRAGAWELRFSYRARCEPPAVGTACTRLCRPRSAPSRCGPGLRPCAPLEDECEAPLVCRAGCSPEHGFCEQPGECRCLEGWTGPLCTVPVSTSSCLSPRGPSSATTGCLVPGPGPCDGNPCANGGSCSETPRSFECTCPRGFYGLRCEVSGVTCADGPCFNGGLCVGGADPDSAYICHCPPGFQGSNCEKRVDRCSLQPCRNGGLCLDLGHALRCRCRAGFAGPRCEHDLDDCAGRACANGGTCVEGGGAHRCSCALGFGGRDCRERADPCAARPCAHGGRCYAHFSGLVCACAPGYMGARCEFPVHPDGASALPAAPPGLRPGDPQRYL
Assay: SPR (Biacore 8K), 37 C, antibody captured on anti-mouse Fc; same values as in Table 36
Source text: The binding kinetics of different anti-DLL3 antibodies to recombinant proteins of different domains of human DLL3 were studied by surface plasmon resonance (SPR) using a Biacore™ 8K instrument. These anti-DLL3 antibodies were produced from mouse hybridomas, and each included a heavy chain variable region and light chain variable region described herein. Briefly, antibodies recognizing human IgG Fc and antibodies recognizing mouse IgG Fc were immobilized on different channels of a Biacore™ 8K chip to allow simultaneous analysis of human and murine anti-DLL3 antibodies. Murine anti-DLL3 antibodies were captured on the anti-mouse Fc channel of the Biacore chip. The human anti-DLL3 antibody from Stemcentrx (San Francisco, Calif.) was used as a control and was captured onto anti-human Fc channel of the Biacore™ chip. Different concentrations of DLL3 ECD, DLL3 N-terminal domain, EGF2-6, EGF3-6, EGF4-6, or EGF5-6 domains of DLL3 were injected. Experiments were performed at 37° C. Biacore™ 8K evaluation software was used for all data analysis. To obtain kinetic rate constants double-referenced data were fit to a 1:1 interaction model using Biacore™ 8K Evaluation software (GE Healthcare, Marlborough, Mass.). The equilibrium binding constant KD was determined by the ratio of binding rate constants kd/kₐ.
Table 36 lists the calculated binding kinetics (KD). […]

Kd: 0.203 nM
koff: 6.47e-05 s⁻¹
B1: murine anti-DLL3 antibody clone 5E7 (antibody, V domains shown)
VH: EVQLQQSGAELVRPGASVKLSCTASGFNIKDDYIHWVKQWPEQGLEWIGWIDSENGDTEYASKFQGKATMTADTSSNTAYLQLSGLTSEDTAVYYCTTSSYYSYDLFVYWGQGTLVTVSA
VL: DVLMTQTPLTLSVPIGQPASISCKSSQSLLHSNGKTYLNWLLQRPGQSPKLLIYLVSKLESGVPDRFSGSGSGTDFTLKISRVEAEDLGVYYCLQTTHLYTFGGGTKLEIK
notes: Murine antibody produced from a mouse hybridoma, captured on anti-mouse Fc in SPR; also called m5E7; murine 5E7
